# Results published in US20040131678A1, “Resorbable bone cement containing active agents” (priority 2001, published 2004).
# Experiments:
# [1] = tested on: S. aureus; assay: Standard killing assay of released peptide; type: cell-based; conditions: medium samples from release experiment
# Procedure: In the release experiments the cement powder (40 mg) was mixed on a glass plate with TGFβ-containing liquid (13.3 μl), giving a paste of 53 mg cement with 133 ng TGFβ and 250 μg DHVAR 5. After 1 min of mixing the cement paste was applied into a Teflon mould with a diameter of 5 mm and measuring 1 mm in height. After 2 min the cement pellets were removed from the mould and added to the wells of 12-well culture plates (Costar, Cambridge, Mass., USA). Complete culture medium (Dulbecco's modified Eagle's medium (DMEM, Gibco-BRL Life Technologies Ltd. Paisley, UK) with 10% fetal bovine serum (FBS; Gibco) was added at 1 ml per well, to wells containing a TGFβ DHVAR5 enriched cement pellet as described above. The multiwell plates were incubated at 37° C. in 5% CO2 and 95% humidity. Culture medium was renewed completely at suitable time intervals (0.5, 1, 2, 4, 24, 48 hr and 1, 2, 4 and 8 weeks), and the medium samples were stored at −20° C. until used for TGFβ and DHVAR 5 determination. TGFβ was determined in the collected culture medium samples using a commercially available enzyme-linked immunosorbant assay (ELISA) (Promega, Madison, Wis., USA). A few cement pellets were crushed in the well with a mortar at 48 hr, after removal of the medium. […] The amount of DHVAR5 released was determined by subjecting medium samples to capillary zone electrophoresis. […]
# [2] = Release kinetics of bone growth factor and antimicrobial peptide from cement pellets into culture medium; type: physicochemical; conditions: for cumulative release of TGFβ, of the original amount mixed in the cement: ELISA
# Procedure: The release kinetics of the bone growth factor and of the antimicrobial peptide from bone substitute have been determined as follows:
# In the release experiments the cement powder (40 mg) was mixed on a glass plate with TGFβ-containing liquid (13.3 μl), giving a paste of 53 mg cement with 133 ng TGFβ and 250 μg DHVAR 5. After 1 min of mixing the cement paste was applied into a Teflon mould with a diameter of 5 mm and measuring 1 mm in height. After 2 min the cement pellets were removed from the mould and added to the wells of 12-well culture plates (Costar, Cambridge, Mass., USA). Complete culture medium (Dulbecco's modified Eagle's medium (DMEM, Gibco-BRL Life Technologies Ltd. Paisley, UK) with 10% fetal bovine serum (FBS; Gibco) was added at 1 ml per well, to wells containing a TGFβ DHVAR5 enriched cement pellet as described above. The multiwell plates were incubated at 37° C. in 5% CO2 and 95% humidity. Culture medium was renewed completely at suitable time intervals (0.5, 1, 2, 4, 24, 48 hr and 1, 2, 4 and 8 weeks), and the medium samples were stored at −20° C. until used for TGFβ and DHVAR 5 determination. TGFβ was determined in the collected culture medium samples using a commercially available enzyme-linked immunosorbant assay (ELISA) (Promega, Madison, Wis., USA). A few cement pellets were crushed in the well with a mortar at 48 hr, after removal of the medium. The fragments were incubated in fresh medium for 1 hr; medium was then removed and stored for DHVAR5 and TGFβ determination. The amount of DHVAR5 released was determined by subjecting medium samples to capillary zone electrophoresis. Biological activity against S. aureus was confirmed in a standard killing assay. TGFβ was assayed by standard immunological analysis and by examination of the potency to promote cell growth as described above. The release of TGFβ from a cement pellet that incorporated TGFβ and DHVAR5 (133 ng TGFβ and 250 μg DHVAR 5 in 53 mg cement) at the time of setting of the cement, is shown in FIGS. 3 and 4 respectively. A rapid TGFβ release was found in the first 4 hr followed by a much slower release. The cumulative release found after 4 hr was 0.5% of the original amount of TGFβ mixed in the cement and increased to 1% after 48 hr. Release of TGFβ continued slowly hereafter, with maximal 0.1% released during the next 8 weeks (data not shown).
# Similar results were obtained with peptides of Seq. ID Nos. 1-3, 5-7.
substance,measurement,setting,value
"LLLFLLKKRKKRKY [DHVAR-5, anti-microbial peptide, synthetic derivative based on histatin 5 carboxyterminal]",Biological activity against S. aureus of released peptide,[1],confirmed
same,antimicrobial peptide released from the cement material,[2]; after 4 days,more than 80%
same,release of DHVAR 5 from the cement material,"[2]; within 48 hours, capillary zone electrophoresis, DMEM with 10% FBS, 37° C.",70%
TGFβ,"cumulative release of TGFβ, of the original amount mixed in the cement","[2]; after 4 hr, cement pellet 133 ng TGFβ and 250 μg DHVAR 5 in 53 mg cement, DMEM with 10% FBS, 37° C.",0.5%
same,"cumulative release of TGFβ, of the original amount mixed in the cement","[2]; after 48 hr, same pellet, DMEM with 10% FBS, 37° C.",1%
same,TGFβ released during the next 8 weeks,"[2]; after the first 48 hr, maximal, data not shown",≤ 0.1%
same,TGFβ released within 1 hr after fragmentation,"[2]; pellets fragmented at 48 hr, fresh medium 1 hr, data not shown",approximately 0.5%
gentamicin [reference compound],release kinetics from cement,[2]; in a similar test,incomplete and slow release kinetics
